What was measured:
HeLa Kyoto [1] = assay: solubility change mitosis vs G1/S (difference of NP-40 vs SDS log2 ratios) (log2 ratio difference); higher = more soluble in mitosis
HeLa Kyoto [2] = assay: solubility in G1/S (NP-40 vs SDS abundance) (log2 ratio); higher = more soluble; details: cell cycle stage: G1/S
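For solubility change mitosis vs G1/S (difference of NP-40 vs SDS log2 ratios) in this document: synchronized HeLa Kyoto cells (double thymidine block for G1/S, nocodazole release for mitosis), protein amounts in NP-40 versus SDS lysates quantified by mass spectrometry, three biological replicates.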
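For solubility in G1/S (NP-40 vs SDS abundance) in this document: HeLa Kyoto cells arrested at G1/S by double thymidine block, proteins quantified by TMT10plex mass spectrometry in mild NP-40 versus SDS extracts, three biological replicates.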

Chain of SENP3 (chain, as listed by the source): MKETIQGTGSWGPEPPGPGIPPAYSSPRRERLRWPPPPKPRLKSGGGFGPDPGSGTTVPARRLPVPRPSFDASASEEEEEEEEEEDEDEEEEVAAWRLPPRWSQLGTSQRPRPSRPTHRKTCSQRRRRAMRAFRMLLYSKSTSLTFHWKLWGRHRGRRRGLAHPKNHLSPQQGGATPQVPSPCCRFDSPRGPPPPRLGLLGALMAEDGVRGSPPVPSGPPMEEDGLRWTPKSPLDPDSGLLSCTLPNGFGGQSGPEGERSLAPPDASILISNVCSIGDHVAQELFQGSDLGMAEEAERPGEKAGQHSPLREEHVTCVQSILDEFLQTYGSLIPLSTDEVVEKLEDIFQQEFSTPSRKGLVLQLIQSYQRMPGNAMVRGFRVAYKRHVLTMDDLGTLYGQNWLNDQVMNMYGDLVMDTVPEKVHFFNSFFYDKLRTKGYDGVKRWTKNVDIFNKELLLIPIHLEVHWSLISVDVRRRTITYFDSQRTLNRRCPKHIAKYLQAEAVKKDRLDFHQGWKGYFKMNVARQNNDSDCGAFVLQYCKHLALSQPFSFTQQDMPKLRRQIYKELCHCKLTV
Chain of CMC2 (chain, as listed by the source): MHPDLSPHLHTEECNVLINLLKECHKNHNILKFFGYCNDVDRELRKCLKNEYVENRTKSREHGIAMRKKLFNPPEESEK
Chain of INPP5B (chain, as listed by the source): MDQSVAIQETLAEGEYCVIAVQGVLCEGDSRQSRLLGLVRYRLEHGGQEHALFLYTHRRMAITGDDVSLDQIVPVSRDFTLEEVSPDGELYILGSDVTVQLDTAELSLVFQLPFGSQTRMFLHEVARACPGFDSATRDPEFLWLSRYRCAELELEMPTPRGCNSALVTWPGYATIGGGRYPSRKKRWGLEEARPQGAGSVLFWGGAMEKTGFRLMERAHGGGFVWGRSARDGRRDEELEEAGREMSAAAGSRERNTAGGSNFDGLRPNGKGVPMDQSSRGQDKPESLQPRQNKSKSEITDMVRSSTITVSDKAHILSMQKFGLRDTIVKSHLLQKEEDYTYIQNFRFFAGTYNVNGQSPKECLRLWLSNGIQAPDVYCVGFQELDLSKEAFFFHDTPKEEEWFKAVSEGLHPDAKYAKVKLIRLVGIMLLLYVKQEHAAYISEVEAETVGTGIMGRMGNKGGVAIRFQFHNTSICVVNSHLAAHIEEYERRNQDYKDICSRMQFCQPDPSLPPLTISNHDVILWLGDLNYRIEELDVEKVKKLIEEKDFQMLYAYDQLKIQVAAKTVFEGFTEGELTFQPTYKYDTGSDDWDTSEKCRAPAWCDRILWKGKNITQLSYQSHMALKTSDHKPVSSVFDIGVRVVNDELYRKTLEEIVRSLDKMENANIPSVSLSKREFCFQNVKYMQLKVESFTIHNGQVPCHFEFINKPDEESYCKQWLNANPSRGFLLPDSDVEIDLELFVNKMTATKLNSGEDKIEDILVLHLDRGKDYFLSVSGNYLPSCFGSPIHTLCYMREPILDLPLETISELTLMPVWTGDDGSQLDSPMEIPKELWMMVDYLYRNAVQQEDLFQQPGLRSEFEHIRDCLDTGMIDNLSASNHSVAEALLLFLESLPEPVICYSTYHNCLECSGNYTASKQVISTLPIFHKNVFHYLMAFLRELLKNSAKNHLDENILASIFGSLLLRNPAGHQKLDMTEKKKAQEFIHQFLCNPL

Substance | solubility change mitosis (log2) (HeLa Kyoto [1]) | solubility in G1/S (log2) (HeLa Kyoto [2])
MTFQFNFTIEDHLENELTPIRDGALTLDSSKELSVSESQKGEERDRKCSAEQFDLPQDHLWEHKSMENAAPSQDTDSPLSAASSSRNLEPHGKQPSLRAAKEHAMPKDLKKMLENKVIETLPGFQHVKLSVVKTILLKENFPGENIVSKSFSSHSDLITGVYEGGLKIWECTFDLLAYFTKAKVKFAGKKVLDLGCGSGLLGITAFKGGSKEIHFQDYNSMVIDEVTLPNVVANSTLEDEENDVNEPDVKRCRKPKVTQLYKCRFFSGEWSEFCKLVLSSEKLFVKYDLILTSETIYNPDYYSNLHQTFLRLLSKNGRVLLASKAHYFGVGGGVHLFQKFVEERDVFKTRILKIIDEGLKRFIIEITFKFPG [METTL18] | 0.0132 | -0.31
MGPLRESKKEHRVQHHDKEISRSRIPRLILRPHMPQQQHKVSPASESPFSEEESREFNPSSSGRSARTVSSNSFCSDDTGCPSSQSVSPVKTPSDAGNSPIGFCPGSDEGFTRKKCTIGMVGEGSIQSSRYKKESKSGLVKPGSEADFSSSSSTGSISAPEVHMSTAGSKRSSSSRNRGPHGRSNGASSHKPGSSPSSPREKDLLSMLCRNQLSPVNIHPSYAPSSPSSSNSGSYKGSDCSPIMRRSGRYMSCGENHGVRPPNPEQYLTPLQQKEVTVRHLKTKLKESERRLHERESEIVELKSQLARMREDWIEEECHRVEAQLALKEARKEIKQLKQVIETMRSSLADKDKGIQKYFVDINIQNKKLESLLQSMEMAHSGSLRDELCLDFPCDSPEKSLTLNPPLDTMADGLSLEEQVTGEGADRELLVGDSIANSTDLFDEIVTATTTESGDLELVHSTPGANVLELLPIVMGQEEGSVVVERAVQTDVVPYSPAISELIQSVLQKLQDPCPSSLASPDESEPDSMESFPESLSALVVDLTPRNPNSAILLSPVETPYANVDAEVHANRLMRELDFAACVEERLDGVIPLARGGVVRQYWSSSFLVDLLAVAAPVVPTVLWAFSTQRGGTDPVYNIGALLRGCCVVALHSLRRTAFRIKT [SYBU] | 0.0944 | -0.253
MTQQPQDDFDRSVEDAQAWMKAVQDQLQVNDNTQGPRAALEARLWETEKICQLEPEGRVRVDLVLRMAEALLACCPGDQKPGILARLKDIKAQWEETVTYMTHCHSRIEWVWLHWSEYLLARDEFYRWFQKMMVTLEPHIELQLGLKEKQWQLSHAQVLLHNVDNQAVLLDRLLEEAASLFNRIGDPSVDEDAQKRMKAEYDAVKAKAQKRVDLLEQVAREHEEYQAGVDEFQLWLKAVVEKVNGCLGRNCKLPITQRLSTLQDIAKDFPRGEESLETLEEQSAGVIRNTSPLGAEKITGELEEMRKVLEKLRALWEEEEERLRGLLRSRGAWEQQIKQLEAELSEFRMVLQRLAQEGLQPAAKAGTEDELVAHWRRYSATRAALASEEPRVDRLQAQLKELIVFPHNLKPLSDSVIATIQEYQSLKVKSARLRNAAAVELWQHFQRPLQDLQLWKALAQRLLEVTASLPDLPSLHTFLPQIEAALMESSRLKELLTMLQLKKDLLIGIFGQERATALLEQVAGSMRDRDLLHNSLLQRKSKLQSLLAQHKDFGAAFEPLQRKLLDLQVRVQAEKGLQRDLPGKQAQLSRLQGLQEEGLDLGAQMEAARPLVQENPNHQHKMDQLSSDFQALQRSLEDLVDRCRQSVQEHCTFSHQLLELRQWIVVTTQKLEAHRGEAGPGDAESQEAEFERLVAEFPEKEAQLSLVEAQGWLVMEKSSPEGAAVVQEELRELAESWRALRLLEESLLSLIRNWHLQRMEVDSGKKMVFTNNIPKSGFLINPMDPIPRHRRRANLLQEEEGSHEDFSQLLRNFGQWLQVENSKLVRIIAMRTSTAEDLRTRKSKLQELEARVPEGQHLFENLLRLGPARGTSDELEDLRYQWMLYKSKLKDSGHLLTQSSPGEPTGFQKTRRWRGLGSLFRRACCVALPLQLLLLLFLLLLFLLPIREEDRSCTLANNFARSFTLMLRYNGPPPT [SYNE3] | 0.336 | -0.89
MAHLGPTPPPHSLNYKSEDRLSEQDWPAYFKVPCCGVDTSQIESEEAEVDVRERETQRDREPKRARDLTLRDSCTDNSMQFGTRTTTAEPGFMGTWQNADTNLLFRMSQQAIRCTLVNCTCECFQPGKINLRTCDQCKHGWVAHALDKLSTQHLYHPTQVEIVQSNVVFDISSLMLYGTQAVPVRLKILLDRLFSVLKQEEVLHILHGLGWTLRDYVRGYILQDAAGKVLDRWAIMSREEEIITLQQFLRFGETKSIVELMAIQEKEGQAVAVPSSKTDSDIRTFIESNNRTRSPSLLAHLENSNPSSIHHFENIPNSLAFLLPFQYINPVSAPLLGLPPNGLLLEQPGLRLREPSLSTQNEYNESSESEVSPTPYKNDQTPNRNALTSITNVEPKTEPACVSPIQNSAPVSDLTKTEHPKSSFRIHRMRRMGSASRKGRVFCNACGKTFYDKGTLKIHYNAVHLKIKHRCTIEGCNMVFSSLRSRNRHSANPNPRLHMPMLRNNRDKDLIRATSGAATPVIASTKSNLALTSPGRPPMGFTTPPLDPVLQNPLPSQLVFSGLKTVQPVPPFYRSLLTPGEMVSPPTSLPTSPIIPTSGTIEQHPPPPSEPVVPAVMMATHEPSADLAPKKKPRKSSMPVKIEKEIIDTADEFDDEDDDPNDGGAVVNDMSHDNHCHSQEEMSPGMSVKDFSKHNRTRCISRTEIRRADSMTSEDQEPERDYENESESSEPKLGEESMEGDEHIHSEVSEKVLMNSERPDENHSEPSHQDVIKVKEEFTDPTYDMFYMSQYGLYNGGGASMAALHESFTSSLNYGSPQKFSPEGDLCSSPDPKICYVCKKSFKSSYSVKLHYRNVHLKEMHVCTVAGCNAAFPSRRSRDRHSANINLHRKLLTKELDDMGLDSSQPSLSKDLRDEFLVKIYGAQHPMGLDVREDASSPAGTEDSHLNGYGRGMAEDYMVLDLSTTSSLQSSSSIHSSRESDAGSDEGILLDDIDGASDSGESAHKAEAPALPGSLGAEVSGSLMFSSLSGSNGGIMCNICHKMYSNKGTLRVHYKTVHLREMHKCKVPGCNMMFSSVRSRNRHSQNPNLHKNIPFTSVD [BNC2] | 0.235 | -0.628
MCTKMEQPFYHDDSYTATGYGRAPGGLSLHDYKLLKPSLAVNLADPYRSLKAPGARGPGPEGGGGGSYFSGQGSDTGASLKLASSELERLIVPNSNGVITTTPTPPGQYFYPRGGGSGGGAGGAGGGVTEEQEGFADGFVKALDDLHKMNHVTPPNVSLGATGGPPAGPGGVYAGPEPPPVYTNLSSYSPASASSGGAGAAVGTGSSYPTTTISYLPHAPPFAGGHPAQLGLGRGASTFKEEPQTVPEARSRDATPPVSPINMEDQERIKVERKRLRNRLAATKCRKRKLERIARLEDKVKTLKAENAGLSSTAGLLREQVAQLKQKVMTHVSNGCQLLLGVKGHAF [JUNB] | 0.346 | 0.0721
DOPEY2 | -0.106 | -0.255
CDK5RAP2 | -0.239 | -0.157
MNGTRNWCTLVDVHPEDQAAGSVDILRLTLQGELTGDELEHIAQKAGRKTYAMVSSHSAGHSLASELVESHDGHEEIIKVYLKGRSGDKMIHEKNINQLKSEVQYIQEARNCLQKLREDISSKLDRNLGDSLHRQEIQVVLEKPNGFSQSPTALYSSPPEVDTCINEDVESLRKTVQDLLAKLQEAKRQHQSDCVAFEVTLSRYQREAEQSNVALQREEDRVEQKEAEVGELQRRLLGMETEHQALLAKVREGEVALEELRSNNADCQAEREKAATLEKEVAGLREKIHHLDDMLKSQQRKVRQMIEQLQNSKAVIQSKDATIQELKEKIAYLEAENLEMHDRMEHLIEKQISHGNFSTQARAKTENPGSIRISKPPSPKPMPVIRVVET [TUFT1] | 0.112 | 0.415
SENP3 | 1.04 | -1.5
MQIIRHSEQTLKTALISKNPVLVSQYEKLNAGEQRLMNEAFQPASDLFGPITLHSPSDWITSHPEAPQDFEQFFSDPYRKTPSPNKRSIYIQSIGSLGNTRIISEEYIKWLTGYCKAYFYGLRVKLLEPVPVSVTRCSFRVNENTHNLQIHAGDILKFLKKKKPEDAFCVVGITMIDLYPRDSWNFVFGQASLTDGVGIFSFARYGSDFYSMHYKGKVKKLKKTSSSDYSIFDNYYIPEITSVLLLRSCKTLTHEIGHIFGLRHCQWLACLMQGSNHLEEADRRPLNLCPICLHKLQCAVGFSIVERYKALVRWIDDESSDTPGATPEHSHEDNGNLPKPVEAFKEWKEWIIKCLAVLQK [AMZ2] | -0.0784 | 0.00677
INPP5B | -0.0113 | -0.143
CMC2 | 0.0296 | 0.229
MAGYLKLVCVSFQRQGFHTVGSRCKNRTGAEHLWLTRHLRDPFVKAAKVESYRCRSAFKLLEVNERHQILRPGLRVLDCGAAPGAWSQVAVQKVNAAGTDPSSPVGFVLGVDLLHIFPLEGATFLCPADVTDPRTSQRILEVLPGRRADVILSDMAPNATGFRDLDHDRLISLCLTLLSVTPDILQPGGTFLCKTWAGSQSRRLQRRLTEEFQNVRIIKPEASRKESSEVYFLATQYHGRKGTVKQ [FTSJ2] | 0.0979 | 0.00974
KIAA0586 | 0.00667 | -0.0749
MALLRRPTVSSDLENIDTGVNSKVKSHVTIRRTVLEEIGNRVTTRAAQVAKKAQNTKVPVQPTKTTNVNKQLKPTASVKPVQMEKLAPKGPSPTPEDVSMKEENLCQAFSDALLCKIEDIDNEDWENPQLCSDYVKDIYQYLRQLEVLQSINPHFLDGRDINGRMRAILVDWLVQVHSKFRLLQETLYMCVGIMDRFLQVQPVSRKKLQLVGITALLLASKYEEMFSPNIEDFVYITDNAYTSSQIREMETLILKELKFELGRPLPLHFLRRASKAGEVDVEQHTLAKYLMELTLIDYDMVHYHPSKVAAAASCLSQKVLGQGKWNLKQQYYTGYTENEVLEVMQHMAKNVVKVNENLTKFIAIKNKYASSKLLKISMIPQLNSKAVKDLASPLIGRS [CCNB2] | 0.0941 | 0.241
MSGRSVRAETRSRAKDDIKKVMAAIEKVRKWEKKWVTVGDTSLRIFKWVPVTDSKEKEKSKSNSSAAREPNGFPSDASANSSLLLEFQDENSNQSSVSDVYQLKVDSSTNSSPSPQQSESLSPAHTSDFRTDDSQPPTLGQEILEEPSLPSSEVADEPPTLTKEEPVPLETQVVEEEEDSGAPPLKRFCVDQPTVPQTASES [BCL7B] | 0.0126 | 0.295
MAQAHRTPQPRAAPSQPRVFKLVLLGSGSVGKSSLALRYVKNDFKSILPTVGCAFFTKVVDVGATSLKLEIWDTAGQEKYHSVCHLYFRGANAALLVYDITRKDSFLKAQQWLKDLEEELHPGEVLVMLVGNKTDLSQEREVTFQEGKEFADSQKLLFMETSAKLNHQVSEVFNTVAQELLQRSDEEGQALRGDAAVALNKGPARQAKCCAH [RAB17] | -0.134 | 0.138
MLQSLAGSSCVRLVERHRSAWCFGFLVLGYLLYLVFGAVVFSSVELPYEDLLRQELRKLKRRFLEEHECLSEQQLEQFLGRVLEASNYGVSVLSNASGNWNWDFTSALFFASTVLSTTGYGHTVPLSDGGKAFCIIYSVIGIPFTLLFLTAVVQRITVHVTRRPVLYFHIRWGFSKQVVAIVHAVLLGFVTVSCFFFIPAAVFSVLEDDWNFLESFYFCFISLSTIGLGDYVPGEGYNQKFRELYKIGITCYLLLGLIAMLVVLETFCELHELKKFRKMFYVKKDKDEDQVHIIEHDQLSFSSITDQAAGMKEDQKQNEPFVATQSSACVDGPANH [KCNK1] | -0.0475 | -0.169

From the supplement of paper PMC5998384
